Experimental data from patent publication US20140024038A1, “METHOD AND REAGENTS FOR TREATING HEPATIC FIBROSIS AND INFLAMMATION” (Agency for Science, Technology and Research, priority 2006, published 2014).

Columns and labels:
Format in all cases: cell-based, rat
[1] = system: HSC-T6, activated HSCs and CFSC-3H; experiment: Cathepsin S activity measurement in HSCs after IFN-γ induction (BioVision kit, fluorogenic substrate); settings: IFN-γ 10 ng/ml, 48 h, P<0.05 vs untreated, FIG. 9
Protocol: The cells were grown in cell culture medium containing 10% FBS in 75 cm^2 flasks. When the cells reached 50-60% confluence, IFN-γ was added at 10 ng/ml or omitted as untreated sample. The cells were harvested 48 h later and resuspended in CS cell lysis buffer. Cathepsin S activity was measured using a kit from BioVision (K1101-01) according to the provided manual. The final substrate concentration was 200 μM. Emitted fluorescence was measured using the Tecan Satire II (Tecan, Zurich, Switzerland) fluorescence plate reader at λex: 400 nm and λem: 505 nm. An AFC standard curve was used to calculate the released fluorophore in μM per μg protein per hour at 37° C.
To further investigate the induction of cathepsin S by IFN-γ, activity measurement was performed to directly detect cathepsin S in activated HSCs and both cell lines. FIG. 9 depicts the cathepsin S activity in activated HSCs and two different cell lines. The cells were grown in cell culture medium containing 10% FBS. When they reached 50-60% confluence, IFN-γ was added or omitted as control. The cells were harvested 48 h later and resuspended in CS cell lysis buffer. Cathepsin S activity was measured using a final substrate concentration of 200 μM. The specific activity is given in released fluorophore (AFC) in μM per μg protein per hour at 37° C. Data are presented as mean±SD*P<0.05.

[2] = system: HSC-T6, activated HSCs and CFSC-3H; experiment: Real-time RT-PCR of Cat S, Cat L, CD74, CIITA and RT1-Dα after IFN-γ treatment
Protocol: HSC-T6, CFSC-3H and activated HSCs were plated into 75 cm^2 culture flasks and grown overnight at conditions described above. The cells at a confluence of 60-70% were incubated with 10 ng/ml final concentration (equivalent to 100 U/ml) of recombinant rat IFN-γ for 2, 4, 8 and 24 h. The recombinant rat interferon-γ (IFN-γ) was purchased from BioVision (CA, USA). Total RNA was isolated using the NucleoSpin RNAII isolation kit (Macherey & Nagel, Germany) according to the manufacturer's protocol. The RNA concentration was measured with the ND-100 spectrophotometer (NanoDrop Technologies, DE, USA).
Real-time PCR was performed using the ABI 7500 Real Time PCR System (Applied Biosystems, CA, USA). All reagents were purchased from this company unless otherwise stated. Total RNA was reverse transcribed to cDNA using reagents from the cDNA archive kit (4322171). 10 μg of total RNA was used in a total reverse transcription reaction volume of 100 μl. The RT step was performed for 10 min at 25° C. and 2 h at 37° C. In real-time PCR, 20× TaqMan gene expression assay mix of Cat S (Rn01534427_m1), Cat L (Rn00565793_m1), CD74 (Rn01491430_g1), CIITA (Rn01424723_g1) and RT1-Dα (Rn02346209g1), as well as 20×18s rRNA (4319413E) were used. For each real-time target, the reaction comprises of 3 μl cDNA, 0.5 μl 20×18S rRNA, 0.5 μl 20× TaqMan gene expression assay, 1 μl nuclease-free water and 5 μl TaqMan Universal PCR master mix (4352042). Conditions for PCR were 2 min 50° C., 10 min 95° C. and 40 cycles of 15 s 95° C. and 1 min 60° C. The comparative threshold method was used to quantitate relative changes of target mRNA (User Bulletin #2, Applied Biosystems). Relative quantitation of target mRNA was expressed as fold change in gene expression to control (untreated). The data presented are representative for three independent experiments with the same trend. The graphs were made using OrignPro 7 (OriginLab, MA, USA).
FIG. 3A-3C depicts a quantitative analysis of the change in cathepsin S, CIITA, CD74 and RT1-Dα transcript level upon treatment with IFN-γ using real-time RT-PCR. After treatment with IFN-γ for 2, 4, 8 and 24 h, total RNA was extracted from the three different HSCs (activated HSC, HSC-T6 and CFSC-3H). The RNA was reverse transcribed and real-time RT-PCR was performed using TaqMan assays. The results were expressed as fold change in gene expression compared to the untreated samples using the relative quantification method for HSC-T6 (FIG. 3A), activated HSCs (FIG. 3B) and CFSC-3H (FIG. 3C).

[3] = system: HSC-T6 and activated HSCs; experiment: Immunofluorescence staining of CD74, RT1-B and cathepsin S proteins after IFN-γ treatment
Protocol: The primary cells were grown in DMEM supplemented with 10% FBS on glass cover slips in 24-well culture plates prior to staining with antibodies against GFAP, SMAA, Desmin, RECA-1, ED-2, cathepsin S, RT1-B and CD74. At 60-70% confluence, the cells were washed once with sterile PBS and fixed with 4% paraformaldehyde (PFA) for 30 min at 4° C., followed by three washes with PBS. The cells were blocked and permeabilized in blocking solution (10% horse serum, 0.1% Triton X-100 in PBS) for 1 h at 37° C. The primary antibody was incubated in 10% blocking solution in PBS for 1 h at 37° C. followed by the secondary antibody under the same conditions. The primary antibody was omitted as a negative control. All images were taken with the LEICA DM IRB epifluorescence microscope using a 63× objective.
For induction experiments, IFN-γ was added to the cell culture at low confluence and the cells were cultivated further for different times depending on the targets to be stained (Cat S: 0, 4, 8, 24, 30 h; CD74: 0, 8, 24, 30 h; and RT1-B: 0, 24, 48 h). The presented images are representative for 3 experiments. Images were taken with a 40× objective. The fluorescence intensities from 3 to 7 different fields of vision of one representative experiment were quantified using the Image processing toolbox of the MATLAB platform (MathWorks, MA, USA). The following antibodies were used in the immunofluorescent staining. Anti-Cat S antibody (sc-6505) and anti-CD74 antibody (sc-5438) were from Santa Cruz Biotechnology (CA, USA); anti-RT1-B antibody (554926) was from BD Pharmingen (CA, USA); anti-GFAP antibody (Z 0334) was from Dako (CA, USA); and anti-SMAA-Cy3 (C 6198) and antidesmin antibody (D 8281) were from Sigma Chemicals (MO, USA). The anti-RECA-1 antibody (MCA970) and anti-ED-2 (CD163, MCA342R) were from Serotec (Oxford, UK). […]
For these experiments, we used the HSC-T6 and the activated HSCs. […] FIG. 5A and FIG. 5C show the immunofluorescence staining with anti-CD74 antibody after 30 h of IFN-γ induction for HSC-T6 and activated HSCs respectively (arrows depict the increase in fluorescence). […]

[4] = IFN-γ 10 ng/ml, 2-24 h, HSC-T6, activated HSCs, CFSC-3H, vs untreated

B1: IFN-γ: recombinant rat interferon-γ purchased from BioVision, proinflammatory cytokine (protein, UniProt P01581 23-156, looked up)
Interferon gamma: QGTLIESLESLKNYFNSSSMDAMEGKSLLLDIWRNWQKDGNTKILESQIISFYLRLFEVLKDNQAISNNISVIESHLITNFFSNSKAKKDAFMSIAKFEVNNPQIQHKAVNELIRVIHQLSPESSLRKRKRSRC
- cathepsin S specific activity [1]: significant increase
- CIITA type III transcript ([2]; HSCs, data not shown): inducible
- increase in CIITA transcript level in activated HSCs relative to HSC-T6 and CFSC-3H ([2]; IFN-γ 10 ng/ml): > 20 times
- CIITA transcript level [2, 4]: started to increase at an early time point
- cathepsin S transcript level [2, 4]: upregulated
- mRNA expression of RT1-Dα and CD74 ([2]; IFN-γ 10 ng/ml, at a later time, indirectly through CIITA): induced
- cathepsin L mRNA level ([2]; IFN-γ 2, 4, 8 and 24 h, activated HSCs, HSC-T6, CFSC-3H, FIG. 4): no influence
- cathepsin L mRNA expression in CFSC-3H ([2]; after 8 h IFN-γ, CFSC-3H): decreased
- cathepsin S expression on the protein level ([3]; IFN-γ 8 h, quantified fluorescence intensities, FIG. 8): significant increase
- CD74 protein expression ([3]; IFN-γ 30 h): significantly induced
- RT1-B protein expression ([3]; IFN-γ 48 h): induced
